Assay results from paper doi:10.1101/2025.02.04.636414, “The mechanics of a continuous self-assembling surface-layer aids cell division in an archaeon” (bioRxiv, 2025).

Target: the molecule itself
Test: cryo-EM imaging of cells; unlabelled purified S-layer proteins added to Vps4 E209Q ΔslaA cells at 75°C for 1 h; cells plunge frozen and imaged (Glacios 200 kV); S-layer lattice seen on the cell surface

B1: exogenous unlabelled S-layer protein SlaA, purified from wild-type S. acidocaldarius DSM639 (natural protein, UniProt Q4J6E5 25-1424, looked up)
chain: ITTTALTPPVSAGGIQAYLLTGSGAPASGLVLFVVNVSNIQVSSSNVTNVISTVVSNIQINAKTENAQTGATTGSVTVRFPTSGYNAYYDSVDKVVFVVVSFLYPYTTTSVNIPLSYLSKYLPGLLTAQPYDETGAQVTSVSSTPFGSLIDTSTGQQILGTNPVLTSYNSYTTQANTNMQEGVVSGTLTSFTLGGQSFSGSTVPVILYAPFIFSNSPYQAGLYNPMQVNGNLGSLSSEAYYHPVIWGRALINTTLIDTYASGSVPFTFQLNYSVPGPLTINMAQLAWIASINNLPTSFTYLSYKFSNGYESFLGIISNSTQLTAGALTINPSGNFTINGKKFYVYLLVVGSTNSTTPVEYVTKLVVEYPSSTNFLPQGVTVTTSSNKYTLPVYEIGGPAGTTITLTGNWYSTPYTVQITVGSTPTLTNYVSQILLKAVAYEGINVSTTQSPYYSTAILSTPPSEISITGSSTITAQGKLTATSASATVNLLTNATLTYENIPLTQYSFNGIIVTPGYAAINGTTAMAYVIGALYNKTSDYVLSFAGSQEPMQVMNNNLTEVTTLAPFGLTLLAPSVPATETGTSPLQLEFFTVPSTSYIALVDFGLWGNLTSVTVSAYDTVNNKLSVNLGYFYGIVIPPSISTAPYNYQNFICPNNYVTVTIYDPDAVLDPYPSGSFTTSSLPLKYGNMNITGAVIFPGSSVYNPSGVFGYSNFNKGAAVTTFTYTAQSGPFSPVALTGNTNYLSQYADNNPTDNYYFIQTVNGMPVLMGGLSIVASPVSASLPSSTSSPGFMYLLPSAAQVPSPLPGMATPNYNLNIYITYKIDGATVGNNMINGLYVASQNTLIYVVPNGSFVGSNIKLTYTTTDYAVLHYFYSTGQYKVFKTVSVPNVTANLYFPSSTTPLYQLSVPLYLSEPYYGSPLPTYIGLGTNGTSLWNSPNYVLFGVSAVQQYLGFIKSISVTLSNGTTVVIPLTTSNMQTLFPQLVGQELQACNGTFQFGISITGLEKLLNLNVQQLNNSILSVTYHDYVTGETLTATTKLVALSTLSLVAKGAGVVEFLLTAYPYTGNITFAPPWFIAENVVKQPFMTYSDLQFAKTNPSAILSLSTVNITVVGLGGKASVYYNSTSGQTVITNIYGQTVATLSGNVLPTLTELAAGNGTFTGSLQFTIVPNNTVVQIPSSLTKTSFAVYTNGSLAIVLNGKAYSLGPAGLFLLPFVTYTGSAIGANATAIITVSDGVGTSTTQVPITAENFTPIRLAPFQVPAQVPLPNAPKLKYEYNGSIVITPQQQVLKIYVTSILPYPQEFQIQAFVYEASQFNVHTGSPTAAPVYFSYSAVRAYPALGIGTSVPNLLVYVQLQGISNLPAGKYVIVLSAVPFAGGPVLSEYPAQLIFTNVTLTQ
modifications: highly glycosylated
notes: S-layer protein SlaA, Sulfolobus acidocaldarius DSM639, gene saci2355; endogenous protein extracted from the cell surface; The purified preparation also holds SlaB (mass spectrometry, Coomassie gel); also called unlabelled exogeneous S-layer proteins; purified S-layer proteins
B1: binds.
